This note sets out measurements from patent publication US8444963B2 (priority 2006, dated 2013).

In data set [1] the test system is syngeneic CT26 colorectal tumors. The data set is described as follows: CT26 tumors in BALB/c mice treated with C. novyi-NT spores and free or liposomal drugs. In kind it is in vivo, mouse. As to conditions: 300 million spores i.v., drug 10 mg/kg single i.v. dose 16 h later. As for the experimental part:
Animal models. […] Tumor volume was calculated as length×width^2×0.5.

Data set [2] in a line: Lipase assay of E. coli lysates. As to conditions: lysates of IPTG-induced E. coli clones. Type of data set: biochemical. An excerpt:
FIG. 4A-4D. Functional analysis of liposomase. Plasmids carrying the wt or mutant forms of the NT01CX2047 gene were introduced into E. coli. “Cured” bacteria represent those originally containing the wt gene and grown in the absence of selective antibiotics until the plasmid was lost. Cellular lysates from three independent clones of each bacterial strain were generated after induction of expression by IPTG and used for the following: (FIG. 4A) Western blotting with an antibody to oligohistidine confirmed the presence of similar amounts of wt and mutant proteins in the bacteria. (FIG. 4B) Lipase activity was analyzed using the fluorescent lipase substrate, 1,2-dioleoyl-3-pyrenedecanoyl-rac-glycerol. (FIG. 4C) Liposome-disrupting activity was assessed using Doxil. (FIG. 4D) Liposome-disrupting activity of lipases purified from ten different organisms were assessed using Doxil. Means and standard deviations of data from at least two independent experiments are shown in (FIG. 4B) to (FIG. 4D).
Protein Expression. […]
Lipase Assay. […] Increase in fluorescence caused by catalytic release of pyrenedecanoic acid was kinetically measured over 2 hours using excitation at 320 nm and emission at 405 nm. All measurements were performed at 37° C. in a FluoStar Galaxy fluorescence plate reader. […]

A short description of data set [3]: Liposome-disruption assay (doxorubicin release from Doxil). Type of data set: biochemical. The following applies: lysates of IPTG-induced E. coli incubated with liposomal doxorubicin. The procedure:
Liposome-Disruption Assay. Samples were mixed with DOXIL™ liposomal doxorubicin (100 μl sample+5 μl DOXIL™ liposomal doxorubicin in a 96-well plate or 50 μl sample+2 μl DOXIL™ in a 384-well plate). Increase in fluorescence caused by the dequenching of released doxorubicin was kinetically measured over 30-60 minutes using excitation at 470 nm and emission at 590 nm (5). All measurements were performed at 37° C. in a fluorescence plate reader. Liposome-disrupting activity was defined as the maximum slope of the release curve.
Lipase Panel Experiment. Purified NT01CX2047 enzyme and nine other purified lipases were dissolved in 100 mM Tris-HCl, pH 7.5 to a concentration of 1 mg/ml. Fifty μl of Assay Buffer (100 mM Tris-HCl pH 7.5+0.125M NaCl) was pipetted into 384-well plates, followed by 2 μl of the relevant lipase and 1 μl of DOXIL. Samples were assayed in duplicate for liposome-disrupting activity as described above.
To test the liposome-disrupting activity of the lysates described above, we incubated them with liposomal doxorubicin. […] When this strain was cultured without selective antibiotics until the bacteria lost the expression vector by random segregation, the liposome-disrupting activity was lost (FIG. 4C). Moreover, the cells that had lost the plasmid were able to grow as robustly as the parental E. coli and the S127X mutant.

For the next data set, the system named is E. coli. The data set is described as follows: Growth of E. coli expressing NT01CX2047 forms after IPTG induction. Type of data set: cell-based. The following applies: after induction by IPTG. As for the experimental part:
Protein Expression. The expression vectors described above were transformed by heat shock into the Rosetta-gami(DE3)pLysS strain of E. coli (Novagen, Madison, Wis.). Three clones per expression construct were picked and each was cultured in 20 ml HyperBroth (AthenaES, Baltimore, Md.) under antibiotic selection (100 μg/ml ampicillin+34 μg/ml chloramphenicol) at room temperature. As a negative control, bacteria carrying the pLip plasmid were “cured” of their plasmid through growth in the absence of selective antibiotics. Loss of plasmid was verified by PCR. Expression was induced using IPTG for 1 hour, reaching an OD600˜0.2, after which the bacteria were pelleted by centrifugation and resuspended in 100 mM Tris-HCl, pH 7.5. Lysates were prepared by sonication in a Bioruptor sonicating bath (Diagenode, Belgium) and centrifugation at ˜14,000 g was performed to remove insoluble matter. […]
To examine the properties of the protein encoded by NT01CX2047, we cloned its ORF into an inducible expression vector which was then introduced into a genetically modified E. coli strain that permitted expression of C. novyi-NT genes (which have a codon usage very different than that of E. coli). […] Lysates from these cells were tested for lipase activity as measured by hydrolysis of 1,2-dioleoyl-3-pyrenedecanoyl-rac-glycerol. […]

Consider `COc1cccc2c1C(=O)c1c(O)c3c(c(O)c1C2=O)C[C@@](O)(C(=O)CO)C[C@@H]3O[C@H]1C[C@H](N)[C@H](O)[C@H](C)O1` [doxorubicin], for which the “tumor response (tumor volume)” value in data set [1] is reported as “Neither doxorubicin nor Doxil alone resulted in prolonged therapeutic effects”.

B1: NT01CX2047: C. novyi-NT extracellular lipase, the liposome-disrupting factor (SEQ ID NO: 1), expressed in E. coli with oligohistidine tag (protein, listed as Clostridium novyi)
chain: MQSKLKKFISTISVSLFTLASVLTFSMAKPVNAFAKENQKVSQNNYPIILCHGCNGWGRTENFGTVAFGARYYWGGNVDLQQKLIENGFTTYTAAVGPLSSNWDRACELYAQIKGGRVDYGEAHAKKHGHSRYGRYYRGFYPEWGTKDENGNIRKVHLIGHSQGGQTIRMLTTLLGQGKQEEISATGENTNELFKGGHDWVSGLITLASPHDGTTLADMKGTDAAAAIGIGAVGSMLGNISNSDIIFDLKVDQWGLKRKPSESFISYFNRCATSKMWNSKDICSVDLSTNGAVEQNKWVKAQPNVYYFSWACCGTIRNPISIFGHHMASPIRMSDKGLYNVQWALQAQLMGTYSRNNPRRAIPVIDSKWWPNDGYVNTISENGPKAGSTDEIVNYNGTPQIGKWNFMGVKDMDHEDIIGRHWNGAPNFFIDMAQMLRNLPVTE
modifications: oligohistidine tag
Take B1: the lipase activity entry in data set [2] is on record as “exhibited lipase activity”. Further, the liposome-disrupting activity entry in data set [3] is “potent activity”. In the data set on E. coli, the “growth of the expressing E. coli cells (apparent toxicity of gene product)” value is given as “grew poorly”.

B2: S127G (protein, listed as Clostridium novyi)
chain: MQSKLKKFISTISVSLFTLASVLTFSMAKPVNAFAKENQKVSQNNYPIILCHGCNGWGRTENFGTVAFGARYYWGGNVDLQQKLIENGFTTYTAAVGPLSSNWDRACELYAQIKGGRVDYGEAHAKKHGHSRYGRYYRGFYPEWGTKDENGNIRKVHLIGHGQGGQTIRMLTTLLGQGKQEEISATGENTNELFKGGHDWVSGLITLASPHDGTTLADMKGTDAAAAIGIGAVGSMLGNISNSDIIFDLKVDQWGLKRKPSESFISYFNRCATSKMWNSKDICSVDLSTNGAVEQNKWVKAQPNVYYFSWACCGTIRNPISIFGHHMASPIRMSDKGLYNVQWALQAQLMGTYSRNNPRRAIPVIDSKWWPNDGYVNTISENGPKAGSTDEIVNYNGTPQIGKWNFMGVKDMDHEDIIGRHWNGAPNFFIDMAQMLRNLPVTE
With B2, the lipase activity result in data set [2] is on record as “devoid of lipase activity”. For the same molecule, in data set [3], the liposome-disrupting activity result is “retained substantial liposome-disrupting activity”. Moreover, the “growth of the expressing E. coli cells (apparent toxicity of gene product)” value in the data set with E. coli is “same poor growth as wild-type NT01CX2047”.
